One assay deals with PKC-δ (Homo sapiens, UniProt Q05655). The experiment in a line: ELISA-based competitive binding assay with purified PKC isoform. More on the design: key to Affinity for PKC isoform δ: —: no detectable affinity; Low to very low affinity at 10X or 20X or both PRE concentrations in at least one cell line in the cell extract assay; Low affinity in purified isoform assay.; Moderate affinity at 10X or 20X or both PRE concentrations in at least one cell line in the cell extract assay.; High affinity at 10X or 20X or both PRE concentrations in at least one cell line in the cell extract assay; High affinity in purified isoform assay. Conditions: for inhibition at 50 µM / inhibition at 100 µM / inhibition at 200 µM / calculated binding capacity (100-% n) after subtraction of the DMSO apparent binding capacity: purified PKC-δ, may be overestimated (longer colour development); for inhibition at 50 µM / inhibition at 100 µM / inhibition at 200 µM: read-out: calculated binding capacity (100-% n) after subtraction of the DMSO apparent binding capacity; for Affinity for PKC isoform δ: Purified isoform, Table 20; for targeting of / affinity for PKC-δ: purified isoform, Tables 14-19. The protocol: Peptides PRE 1, 2, 3, 4, 5, 6, 7, 8, 9, 10, 11, 12 and 13 (see Table 3) were tested for their ability to interfere with binding of PKC isoform-specific antibodies to their target PKC isoforms using a competitive binding assay and purified PKC isoforms.
Procedure: Competitive binding was assessed using a 96 well plate ELISA-based assay as described below.
Greiner 96 well ELISA plates were coated with the appropriate PKC isoform diluted in PBSN (PBS with Calcium/Magnesium+0.05% Sodium azide w/w). 50 μL/well at 250 ng/mL was used. Control wells contained PBSN only. Plates were incubated overnight at 4° C.
The plates were washed 3 times with 200 μL of dH2O per well, then 100 μL of blocking solution was added per well and the plate incubated for 1 h at 37° C. The washing steps with dH2O were repeated and 50 μL of the appropriate PRE solution (PRE stock solution [20 mM in DMSO] diluted in PBSN) was added and the plate incubated for 1 h at room temperature.
After incubation, 5 μL of 1.1:400 anti-PKC (isoform specific antibody) was added per well (to provide a final concentration of 1:4000). For PKC-epsilon, 1.1:800 dilution was used and for PKC-zeta a 1.1:100 dilution was used due to high and low binding affinity, respectively. The plates were then incubated 1 h at room temperature, followed by washing with dH2O as described above.
50 μL of 1:1000 dilution of Alkaline Phosphatase (AP) conjugated antibody (anti-rabbit for all except zeta, which was anti-goat) was then added and the plate incubated for 1 h at room temperature. Washing with dH2O was then repeated. Finally, 100 μL of pNPP solution in pNPP buffer (2 mM MgCl2, 100 mM Sodium bicarbonate in water, pH 9.8) was added to all wells and incubated for 8 minutes for α, βI, βII ε, and ζ, or for 15-20 mins for […] (until sufficient coloration is observed). The reaction was stopped by addition of Stop solution (2N NaOH) and the absorbance at 405 nm was read on a Galaxy Plate reader.
Controls were PKC without PRE; blank controls, and controls containing the final concentrations of DMSO used for solubilizing the PREs. The non-specific binding capacity related to DMSO was also measured.
The antibodies used were as follows: anti-PKC α (Cat. No. SC-208); anti-PKC βI (Cat. No. SC-209); anti-PKC βII (Cat. No. SC-210); anti-PKC δ (Cat. No. SC-213); anti-PKC ε (Cat. No. SC-214); anti-PKC ζ (Cat. No. SC-216-G) (all from Santa Cruz Biotechnology, Inc.). The AP-conjugated antibodies were obtained from Jackson Immuno Research Laboratories (West Grove, Pa.).
Calculations: The OD values measured at 405 nm represent the free PKC coated per well.
OD405 PKC alone−Blank OD405 of each sample=OD405 coated isoform
(OD405 of sample X/OD405 coated isoform)×100=% n that represents the percentage of X binding compared to control.
100-% n measures the relative binding capacity of X towards the tested isoform.
The apparent binding capacity of the DMSO samples was then subtracted from X binding capacity.
All measurements were made in triplicate and the values in the table represent the averaged calculated binding capacity values after subtraction of the DMSO apparent binding capacity (averaged from 12 values, respectively 10.80, 11.20 and 16.40 corresponding to the concentrations of DMSO used to dilute the […] at 200, 100 and 50 μM respectively). The results allow for quantitative comparison of the binding capacity of each PRE towards an individual isoform within each table, but not among isoforms due to differences in sensitivity of the specific antibodies toward the secondary antibody. This applies particularly to PKC-delta. As noted above, the colour development duration was increased 2-3 times and, as a result, the OD405 measurements may be overestimated for this isoform.

The next assay concerns the target PKC-α (Homo sapiens, UniProt P17252). The experiment in a line: Competitive binding assay using cell extracts (Western blot). Conditions: for Affinity for PKC isoform α: Cell extract, PRE at 10X, 20X antibody concentration, Table 20. More on the design: key to Affinity for PKC isoform α: —: no detectable affinity; Low to very low affinity at 10X or 20X or both PRE concentrations in at least one cell line in the cell extract assay; Low affinity in purified isoform assay.; Moderate affinity at 10X or 20X or both PRE concentrations in at least one cell line in the cell extract assay.; High affinity at 10X or 20X or both PRE concentrations in at least one cell line in the cell extract assay; High affinity in purified isoform assay. The method, then:
Binding efficiency and specificity of the peptides PRE 2, 3, 4, 5, 6, 7, 8, 9, 10, 11, 12 and 13 (see Table 3) was also tested using cytoplasmic extracts from different cell lines expressing appropriate PKC isoforms as described for Example 1. Briefly, the protein cytoplasmic extracts were separated by electrophoresis and transferred onto nitrocellulose membranes by standard Western blotting procedures. The bands on the Western blots were detected with matching primary antibodies and alkaline phosphatase conjugated secondary antibody. The bands were then scanned and the relative density measurements obtained.
This procedure to assess the binding characteristics of the PREs is based on competition binding of the PRE with the primary anti-isoform PKC specific antibodies. The lower the measured band density, the greater the binding of the PRE to the PKC isoform. The PREs were added at 10 and 20 times (10×, 20×) the primary antibody concentration, according to classical competition between antigenic peptide and primary antibody. The following cell lines (obtained from the ATCC) were used: H661—NCI human lung carcinoma NSCLC; MDAMB231—human highly invasive breast cancer cell line from pleural effusion; LS180—human colon adenocarcinoma; LnCAP—human prostate adenocarcinoma; CCD16Lu—human lung fibroblasts; Du145—human prostate carcinoma brain metastasis, and T24—human bladder carcinoma.
In these cases, the 20× band density figures relative to control and 10× values were reliable.
In general terms: Immunoblotting shows a protein as a band on a membrane.

This is an account of results in patent US20100041597A1, “PEPTIDES TARGETED TO PROTEIN KINASE C ISOFORMS AND USES THEREOF” (priority 2005, published 2010).

“Also recorded” adds a separate entry of the source.

PKC-δ, sequence (Q05655 whole entry, canonical isoform): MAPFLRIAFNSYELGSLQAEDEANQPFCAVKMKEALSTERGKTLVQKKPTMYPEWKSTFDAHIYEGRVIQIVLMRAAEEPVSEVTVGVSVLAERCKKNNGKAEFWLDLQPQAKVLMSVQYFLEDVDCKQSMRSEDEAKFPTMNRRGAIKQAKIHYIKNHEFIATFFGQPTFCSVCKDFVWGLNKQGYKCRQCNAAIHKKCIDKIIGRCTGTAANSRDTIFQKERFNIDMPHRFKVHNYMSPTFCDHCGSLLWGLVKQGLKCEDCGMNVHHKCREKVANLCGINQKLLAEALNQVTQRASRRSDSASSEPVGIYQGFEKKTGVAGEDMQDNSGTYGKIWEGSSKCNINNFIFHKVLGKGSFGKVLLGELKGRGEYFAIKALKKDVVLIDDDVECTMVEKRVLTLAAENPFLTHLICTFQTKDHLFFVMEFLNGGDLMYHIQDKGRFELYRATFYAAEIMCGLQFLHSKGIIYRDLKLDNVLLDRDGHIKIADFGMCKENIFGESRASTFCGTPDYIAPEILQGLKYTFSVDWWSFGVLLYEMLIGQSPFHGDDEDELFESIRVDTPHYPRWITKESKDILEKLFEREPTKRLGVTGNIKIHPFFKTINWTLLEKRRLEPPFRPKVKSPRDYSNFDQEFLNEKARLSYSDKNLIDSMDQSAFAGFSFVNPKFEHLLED

As to Ac-AKGIQEVKGGDAQNLIGISI-NH2 [PRE 3], at PKC-δ (PRE 50 μM), the inhibition at 50 µM was 48.3%. Also, the inhibition at 100 µM on PKC-δ (PRE 100 μM) was 56%. For the same substance, at PKC-δ (PRE 200 μM), the inhibition at 200 µM is 57%. On PKC-δ, the “Affinity for PKC isoform δ” value is “H” and the “targeting of / affinity for PKC-δ” value is given as “targeted most strongly”. Moreover, at PKC-α, the “Affinity for PKC isoform α” value is given as “H”.
In the case of Ac-AKGIQEVKGGKDAQNLIGISI-NH2 [PRE 5], the inhibition at 50 µM at PKC-δ (PRE 50 μM) is 0.2%. Further, on PKC-δ (PRE 100 μM), the inhibition at 100 µM was 0%. Further, at PKC-δ (PRE 200 μM), the inhibition at 200 µM was 4.31%. Besides, the “Affinity for PKC isoform δ” value on PKC-δ is given as “L”. Further, the “Affinity for PKC isoform α” value on PKC-α was “M”.
As for Ac-ISIGILNQADK-NH2 [PRE 10], in the assay with PKC-δ (PRE 200 μM), the “calculated binding capacity (100-% n) after subtraction of the DMSO apparent binding capacity” value is 9.47. The “Affinity for PKC isoform δ” value with PKC-δ is recorded as “—”. In addition, the “Affinity for PKC isoform α” value in the assay with PKC-α is “H/L”.
For Ac-ISIGILQNADK-NH2 [PRE 7], the “Affinity for PKC isoform δ” value with PKC-δ is “—”. For the same substance, the “Affinity for PKC isoform α” value with PKC-α is “L”.
For Ac-KDANQLIGISI-NH2 [PRE 6], in that order: “L” and “H/L”.
For Ac-KDAQNLI-NH2 [PRE 12], in that order: “L” and “—”.
For “Ac-KDAQNLIGISI-NH2 [PRE 4, Ac-KDAQNLIGISI-NH2]”, the inhibition at 50 µM on PKC-δ (PRE 50 μM) was 29.2%. For the same substance, the inhibition at 100 µM at PKC-δ (PRE 100 μM) is 30.7%. Besides, the inhibition at 200 µM on PKC-δ (PRE 200 μM) is 17.3%. Moreover, at PKC-δ, the “Affinity for PKC isoform δ” value is “H” and the “targeting of / affinity for PKC-δ” value is on record as “targeted most strongly; also recorded: showed an affinity for PKC-6”. Also, the “Affinity for PKC isoform α” value at PKC-α is on record as “H”. The “affinity for PKC-α” value at PKC-α (cell extracts) is reported as “strong affinity for PKC-α”.
As for Ac-RDAQNLI-NH2 [PRE 13], the “Affinity for PKC isoform δ” value with PKC-δ was “L”. The “Affinity for PKC isoform α” value in the assay with PKC-α is recorded as “M/H”.
Ac-RDAQNLIGISI-NH2 [PRE 11]: in the assay with PKC-δ, the “Affinity for PKC isoform δ” value is “H” and the “targeting of / affinity for PKC-δ” value was “targeted most strongly”. Also, the “Affinity for PKC isoform α” value in the assay with PKC-α is “H/L”.
Turning to Ac-isigilgnadk-NH2 [PRE 9], the “calculated binding capacity (100-% n) after subtraction of the DMSO apparent binding capacity” value in the assay with PKC-δ (PRE 50 μM) is 16.23; with PKC-δ (PRE 100 μM) it was 19.27; in the assay with PKC-δ (PRE 200 μM), 9.95. Further, the “Affinity for PKC isoform δ” value in the assay with PKC-δ is “L”. The “Affinity for PKC isoform α” value with PKC-α is on record as “M/L”.
As to ILEDKGGDAQNLIGISI [PRE 8], the “Affinity for PKC isoform δ” value with PKC-δ is listed as “—”. The “Affinity for PKC isoform α” value in the assay with PKC-α was “M/L”.
For the substance RRKKGGKDFVVKR [PRE 1], in the assay with PKC-δ, the “Affinity for PKC isoform δ” value was “H” and the “targeting of / affinity for PKC-δ” value is recorded as “targeted most strongly”. Moreover, in the assay with PKC-α, the “Affinity for PKC isoform α” value was “H”.
